Data published in patent publication US20090104204A1 (CRUCELL HOLLAND B V, published 2009).

Key:
bovine serum albumin [1] = target: T1, bovine serum albumin (bovine, UniProt P02769 25-607); assay: ELISA, phage antibody on coated 1% BSA, anti-M13 peroxidase, OD 492 nm
T1 construct: Negative control antigen in the non-specific reactivity ELISA; also called BSA; BSA (1%)
Description: (§1) To test for non-specific reactivity against non-bacterial antigens an ELISA assay was used. The complex antigens 5% FBS, 2% ELK and 1% BSA were coated overnight to Maxisorp™ ELISA plates. Selected single-chain phage antibodies were incubated for 15 minutes in an equal volume of PBS containing 1% BSA to obtain blocked phage antibodies. The plates were emptied, and the blocked single-chain phage antibodies were added to the wells. Incubation was allowed to proceed for two hours at room temperature, the plates were washed in PBS containing 0.1% v/v Tween-20 and bound phage antibodies were detected by means of OD 492 nm measurement using an anti-M13 antibody conjugated to peroxidase. As a control, the procedure was performed simultaneously without single-chain phage antibody, with a negative control single-chain phage antibody directed against West Nile virus envelope protein (SC04-374).

bovine serum albumin [2] = target: T1, bovine serum albumin; assay: ELISA, phage antibody on coated 1% BSA, anti-M13 peroxidase
Description: as §1

T1 sequence (P02769 25-607 limits assumed): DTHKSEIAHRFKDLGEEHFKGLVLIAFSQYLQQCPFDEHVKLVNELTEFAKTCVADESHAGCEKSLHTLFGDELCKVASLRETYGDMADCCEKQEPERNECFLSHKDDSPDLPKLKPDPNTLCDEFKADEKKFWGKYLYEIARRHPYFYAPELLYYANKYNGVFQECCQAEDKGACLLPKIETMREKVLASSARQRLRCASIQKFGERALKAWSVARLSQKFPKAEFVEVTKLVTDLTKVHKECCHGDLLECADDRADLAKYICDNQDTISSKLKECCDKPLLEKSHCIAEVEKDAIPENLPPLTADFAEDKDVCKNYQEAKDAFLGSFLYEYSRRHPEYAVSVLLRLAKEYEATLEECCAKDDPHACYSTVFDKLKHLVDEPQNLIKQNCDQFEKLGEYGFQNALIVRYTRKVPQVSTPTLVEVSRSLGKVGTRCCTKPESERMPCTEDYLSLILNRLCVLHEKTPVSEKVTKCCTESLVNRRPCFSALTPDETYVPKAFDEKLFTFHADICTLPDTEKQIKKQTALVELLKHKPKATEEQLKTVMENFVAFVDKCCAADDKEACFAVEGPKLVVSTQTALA

Binder	binding result (bovine serum albumin [1])	ELISA (OD492 nm) (bovine serum albumin [2])
single-chain phage antibody SC02-430 (scFv, Selected from the semi-synthetic library JK1994 on S. aureus strain Cowan; also called scFv SC02-430) scFv: QVQLQESGPGLVKPSQTLSLTCTVSGGSISSGGYYWSWIRQPPGKGLEWIGYIYYSGSTYYNSSLKSRVTISVDTSKNQFSLKLSSVTAADTAVYYCAKTVMNSFFDWGQGTLVTVSSGGGGSGGGGSGGGGSEIELTQPPSVSGSPGQSITISCTGTSSDVGSYNLVSWYQQHPGKAPKLMIYEVSKRPSGVSNRFSGSKSGNTASLTISGLQAEDEADYYCCSYAGSSWVFGGGTKLTVL	no binding	0.04
single-chain phage antibody SC05-133 (scFv, also called scFv SC05-133) scFv: EVQLVETGGGLVKPGGSLRLSCSASRFSFRDYYMTWIRQAPGKGPEWVSHISGSGSTIYYADSVRGRFTISRDNAKSSLYLQMDSLQADDTAVYYCARGGRATSYYWVHWGPGTLVTVSSGTGGSGGTGSGTGGSTEIVLTQSPATLSLSPGERATLSCRASQSVSGYLGWYQQKPGQAPRLLIYGASSRATGIPDRFSGSGSGTDFTLTISRLEPEDFAVYYCQQYGSSPLTFGGGTKLEIKR	no binding	0.04
